Measured values reported in patent US20240132578A1.

Tests used:
[1] = target: HIV-1 JR-CSF envelope glycoprotein (Env), wild type, on pseudovirus (HIV-1 isolate JR-CSF (clade B)) (UniProt P20871); experiment: cell-based or functional assay
[2] = target: HIV-1 Env of isolate APV-13 (Clade B) (HIV-1); experiment: cell-based or functional assay
[3] = target: HIV-1 Env of pseudovirus AC10 (HIV-1); experiment: cell-based or functional assay
[4] = target: HIV-1 Env of isolate MG RM-D-005 (subtype D) (HIV-1); experiment: cell-based or functional assay
[5] = target: HIV-1 Env of isolate MGRM-Chronic-B-004 (subtype B), on pseudovirus (HIV-1); experiment: cell-based or functional assay
[6] = target: HIV-1 Env of isolate MGRM-F1-004 (subtype F) (HIV-1); experiment: cell-based or functional assay
[7] = target: HIV-1 Env of isolate 6535.3 (subtype B), on pseudovirus (HIV-1); experiment: cell-based or functional assay
[8] = target: HIV-1 Env of isolate MG RM-D-003 (subtype D) (HIV-1); experiment: cell-based or functional assay
[9] = target: HIV-1 Env of isolate APV_6 (subtype B), on pseudovirus (HIV-1); experiment: cell-based or functional assay
[10] = target: HIV-1 envelope glycoprotein (Env) of isolate 92WR026 (HIV-1); experiment: cell-based or functional assay
[11] = target: HIV-1 Env of isolate MGRM-Chronic-B-010 (subtype B), on pseudovirus (HIV-1); experiment: cell-based or functional assay
[12] = target: HIV-1 Env of isolate CAAN.A2 (subtype B), on pseudovirus (HIV-1); experiment: cell-based or functional assay
[13] = target: HIV-1 Env of isolate MGRM-F1-010 (subtype F) (HIV-1); experiment: cell-based or functional assay
[14] = target: HIV-1 Env of isolate MGRM-A-012 (pseudovirus) (HIV-1); experiment: cell-based or functional assay
[15] = target: HIV-1 Env of isolate 93TH305 (subtype B), on pseudovirus (HIV-1); experiment: cell-based or functional assay
[16] = target: HIV-1 Env of isolate MG RM-D-024 (subtype D) (HIV-1); experiment: cell-based or functional assay
[17] = target: HIV-1 Env of isolate MG RM-C-023 (HIV-1); experiment: cell-based or functional assay
[18] = target: HIV-1 envelope glycoprotein (Env) of isolate MG RM-A-005 (HIV-1); experiment: cell-based or functional assay
[19] = target: HIV-1 Env of isolate MG RM-D-002 (subtype D) (HIV-1); experiment: cell-based or functional assay
[20] = target: HIV-1 envelope glycoprotein (Env) of isolate 92WR024 (HIV-1); experiment: cell-based or functional assay
[21] = target: HIV-1 envelope glycoprotein (Env) of isolate 93WR029 (HIV-1); experiment: cell-based or functional assay
[22] = target: HIV-1 Env of isolate MGRM-Chronic-B-023 (subtype B), on pseudovirus (HIV-1); experiment: cell-based or functional assay
[23] = target: HIV-1 Env of isolate MGRM-C-026 (clade C pseudovirus) (HIV-1); experiment: cell-based or functional assay
[24] = target: HIV-1 Env of isolate MGRM-C-024 (clade C pseudovirus) (HIV-1); experiment: cell-based or functional assay
[25] = target: Endo H treated JR-FL gP120 (HIV-1 JR-FL); experiment: ELISA, antigen-coated wells, mAb titrated; EC50 by nonlinear regression
[26] = target: HIV-1 MGRM-D-001 envelope glycoprotein (Env), clade D pseudovirus (HIV-1); experiment: cell-based or functional assay
[27] = target: HIV-1 92BR020 envelope glycoprotein (Env), clade B pseudovirus (HIV-1); experiment: cell-based or functional assay
[28] = target: HIV-1 CMU02 envelope glycoprotein (Env), clade AE pseudovirus (HIV-1); experiment: cell-based or functional assay
[29] = target: HIV-1 92BR020 envelope glycoprotein (Env) on virus (HIV-1, clade B, isolate 92BR020); experiment: cell-based or functional assay
[30] = target: HIV-1 92UG024 Env (pseudovirus) (HIV-1); experiment: cell-based or functional assay
[31] = target: aMLV envelope (negative control pseudovirus); experiment: cell-based or functional assay
[32] = target: HIV-1 envelope glycoprotein (Env) of isolate MGRM-AG-005 (HIV-1); experiment: cell-based or functional assay
[33] = target: HIV-1 JR-CSF Env S387A (HIV-1 isolate JR-CSF) (UniProt P20871); experiment: cell-based or functional assay
[34] = target: HIV-1 MGRM-D-018 envelope glycoprotein (Env) (HIV-1); experiment: cell-based or functional assay
[35] = target: aMLV envelope protein on pseudovirus (control virus); experiment: cell-based or functional assay
[36] = target: HIV-1 JR-CSF Env R315A (HIV-1 (isolate JR-CSF, clade B)) (UniProt P20871); experiment: cell-based or functional assay
[37] = target: HIV-1 Env of isolate MG RM-D-001 (subtype D) (HIV-1); experiment: cell-based or functional assay
[38] = target: HIV-1 Env of isolate 92UG005 (subtype D) (HIV-1); experiment: cell-based or functional assay

Sequence of 1443_C16 (PG16) (TCN-116) (antibody) (VH): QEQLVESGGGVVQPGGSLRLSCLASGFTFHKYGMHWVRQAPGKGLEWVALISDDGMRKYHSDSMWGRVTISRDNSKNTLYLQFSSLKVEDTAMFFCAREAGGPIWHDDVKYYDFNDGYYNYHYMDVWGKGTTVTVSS
Sequence of 1443_C16 (PG16) (TCN-116) (antibody) (VL): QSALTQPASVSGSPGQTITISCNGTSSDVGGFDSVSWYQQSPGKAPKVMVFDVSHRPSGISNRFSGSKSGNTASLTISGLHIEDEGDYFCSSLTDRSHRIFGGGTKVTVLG
Sequence of 5329_C19 (PGT-136) (antibody) (VH): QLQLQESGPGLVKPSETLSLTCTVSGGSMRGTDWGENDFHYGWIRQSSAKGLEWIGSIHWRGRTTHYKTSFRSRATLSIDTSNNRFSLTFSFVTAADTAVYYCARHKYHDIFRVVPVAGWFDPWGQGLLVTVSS
Sequence of 5329_C19 (PGT-136) (antibody) (VL): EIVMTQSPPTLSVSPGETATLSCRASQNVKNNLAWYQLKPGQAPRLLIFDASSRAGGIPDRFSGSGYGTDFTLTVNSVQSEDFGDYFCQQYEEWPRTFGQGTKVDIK

1443_C16 (PG16) (TCN-116) (antibody)
IC50 (ug/ml), pseudovirus neutralization, TZM-bl assay [1]: 0.001 µg/mL
IC90 (neutralization of pseudovirus) [2]: > 50 µg/mL
IC50, pseudovirus neutralization (TZM-bl assay) [3]: < 0.01 µg/mL

1496_C09 (PG9) (TCN-109) (antibody)
IC50 (µg/mL), pseudovirus neutralization [4]: 1.8 µg/mL
IC50 (ug/ml), pseudovirus neutralization, TZM-bl assay [1]: 0.006 µg/mL
IC50, single-round pseudovirus neutralization [5]: 0.533 µg/mL
IC50 (µg/mL), pseudovirus neutralization [6]: 0.175 µg/mL
IC50, single-round pseudovirus neutralization [7]: 1.05 µg/mL
IC50 (µg/mL), pseudovirus neutralization [8]: 0.033 µg/mL
IC50, single-round pseudovirus neutralization [9]: 0.181 µg/mL
IC50 [10]: 0.164 µg/mL
IC50, single-round pseudovirus neutralization [11]: 0.004 µg/mL
IC50, single-round pseudovirus neutralization [12]: 19.3 µg/mL
IC50 (µg/mL), pseudovirus neutralization [13]: 0.012 µg/mL
IC50 (µg/mL), pseudovirus neutralization [14]: 19.3 µg/mL
IC50, single-round pseudovirus neutralization [15]: 8.12 µg/mL
IC50 (µg/mL), pseudovirus neutralization [16]: 0.038 µg/mL
IC50 (µg/mL), pseudovirus neutralization [17]: 0.614 µg/mL
IC50 [18]: 0.75 µg/mL
IC50 (µg/mL), pseudovirus neutralization [19]: 0.021 µg/mL
IC50 [20]: 0.258 µg/mL
IC50 [21]: 0.69 µg/mL
IC50, single-round pseudovirus neutralization [22]: 0.027 µg/mL
IC50 (µg/mL), single-round pseudovirus neutralization [23]: 0.06 µg/mL
IC50 (µg/mL), single-round pseudovirus neutralization [24]: 0.227 µg/mL

4838_L06 (PGT-121) (antibody)
EC50 [25]: > 10 µg/mL

4858_P08 (PGT-123) (antibody)
IC50, pseudovirus neutralization [26]: 0.215 µg/mL
IC80 (pseudovirus neutralization) [26]: 0.678 µg/mL
IC90 (pseudovirus neutralization) [26]: 1.31 µg/mL
IC95 (pseudovirus neutralization) [26]: 2.33 µg/mL
IC50, pseudovirus neutralization [27]: 0.013 µg/mL
IC80 (pseudovirus neutralization) [27]: 0.039 µg/mL
IC90 (pseudovirus neutralization) [27]: 0.0741 µg/mL
IC95 (pseudovirus neutralization) [27]: 0.134 µg/mL
IC50, pseudovirus neutralization [28]: > 10 µg/mL
IC80 (pseudovirus neutralization) [28]: > 10 µg/mL
IC90 (pseudovirus neutralization) [28]: > 10 µg/mL
IC95 (pseudovirus neutralization) [28]: > 10 µg/mL

4877_D15 (PGT-122) (antibody)
Neutralization IC80 [29]: 0.0929 µg/mL
Neutralization IC90 [29]: 0.168 µg/mL
Neutralization IC95 [29]: 0.289 µg/mL
neutralization IC50 [29]: 0.0337 µg/mL

5123_A06 (PGT-125) (antibody)
Neutralization by PGT-125, IC50 [30]: > 10 µg/mL
Neutralization by PGT-125, IC80 [30]: > 10 µg/mL
Neutralization by PGT-125, IC90 [30]: > 10 µg/mL
Neutralization by PGT-125, IC95 [30]: > 10 µg/mL
Neutralization by PGT-125, IC50 [31]: > 10 µg/mL
Neutralization by PGT-125, IC80 [31]: > 10 µg/mL
Neutralization by PGT-125, IC90 [31]: > 10 µg/mL
Neutralization by PGT-125, IC95 [31]: > 10 µg/mL

5141_B17 (PGT-126) (antibody)
Neutralization IC80 [32]: > 10 µg/mL
Neutralization IC90 [32]: > 10 µg/mL
Neutralization IC95 [32]: > 10 µg/mL
neutralization IC50 [32]: 1.35 µg/mL

5147_N06 (PGT-130) (antibody)
Fold IC50 increase relative to wild-type [33]: 0.7 fold

5329_C19 (PGT-136) (antibody)
Neutralization IC80 [34]: > 10 µg/mL
Neutralization IC90 [34]: > 10 µg/mL
Neutralization IC95 [34]: > 10 µg/mL
neutralization IC50 [34]: > 10 µg/mL

5343_B08 (PGT-135) (antibody)
Neutralization IC80 [35]: > 10 µg/mL
Neutralization IC90 [35]: > 10 µg/mL
Neutralization IC95 [35]: > 10 µg/mL
neutralization IC50 [35]: > 10 µg/mL
Fold IC50 increase relative to wild-type [36]: 1.8 fold
Fold IC50 increase relative to wild-type [33]: 0.6 fold

PGV04 (antibody)
IC50 (µg/mL), pseudovirus neutralization [4]: > 50 µg/mL
IC50, single-round pseudovirus neutralization [5]: 0.047 µg/mL
IC50 (µg/mL), pseudovirus neutralization [6]: 0.58 µg/mL
IC50, single-round pseudovirus neutralization [7]: 0.757 µg/mL
IC50 (µg/mL), pseudovirus neutralization [37]: > 50 µg/mL
IC50 (µg/mL), pseudovirus neutralization [8]: > 50 µg/mL
IC50, single-round pseudovirus neutralization [9]: 24.2 µg/mL
IC50 [10]: 0.14 µg/mL
IC50, single-round pseudovirus neutralization [11]: 0.744 µg/mL
IC50, single-round pseudovirus neutralization [12]: 2.26 µg/mL
IC50 (µg/mL), pseudovirus neutralization [13]: 0.184 µg/mL
IC50 (µg/mL), pseudovirus neutralization [14]: 0.225 µg/mL
IC50, single-round pseudovirus neutralization [15]: 0.255 µg/mL
IC50 (µg/mL), pseudovirus neutralization [16]: > 50 µg/mL
IC50 (µg/mL), pseudovirus neutralization [17]: 0.128 µg/mL
IC50 [18]: 0.134 µg/mL
IC50 (µg/mL), pseudovirus neutralization [19]: 0.322 µg/mL
IC50 [20]: 0.31 µg/mL
IC50 [21]: 0.54 µg/mL
IC50 (µg/mL), pseudovirus neutralization [38]: 0.44 µg/mL
IC50, single-round pseudovirus neutralization [22]: 0.139 µg/mL
IC50 (µg/mL), single-round pseudovirus neutralization [23]: 0.303 µg/mL
IC50 (µg/mL), single-round pseudovirus neutralization [24]: > 50 µg/mL

b12 (antibody)
IC90 (neutralization of pseudovirus) [2]: > 50 µg/mL
